Test results reported in the nanobody polyreactivity screen of Harvey et al. (2022).

Assay: yeast display, Sf9 membrane polyspecificity reagent, FACS + sequencing; frameworks hold sequencing errors
How it was run: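 Sorting gates, low and high (top ~1%), were placed on anti-HA fluorescence to track expression and on streptavidin fluorescence to track reagent binding. A clone's polyreactivity label is taken from the gate it came out of. The reagent was 10% biotinylated, detergent-solubilized Sf9 membrane, applied for 1 hour at 4 °C to galactose-induced yeast display cells.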

Row | Sequence | polyreactivity (PSR sort gate)
1 | QVQLVESGGGLVQAGGSLRLSCAASGFTFEYNDMGWYRQAPGIERELVDSISYDSDSTYYADSVKGRFTISRDNAKNTVYLQMNRLKPEDTAVYYCNAGSSYHEYGYWGQGTQVTVSS | high polyreactivity
2 | QVQLVESGGGLVQAGGSLRLSCAASGFIFAYYAMGWYRQAPGKERELVAAISQIGGRTYYADSVKGRFTISRDNAKNTVYLQMNSLKPEDTAVYYCAKAGAYKYGYWGQGTQVTVSS | high polyreactivity
3 | QVHLQECGDGLVQALGSQRLSCAARCYISGYYYMGWYRQAPGKERELVAGIDAFGSSTNYADCVKGRFTISRYNAKNTVYLQMKSLKPEDTALYYCAARPDGDRLFSYWGQGTQVTVFS | low polyreactivity
4 | QVQLVETGGGLVQAGGSLRLSCAASGSIFFLYAMGWYRQAPGKERELVAAISRTGSTYADSVKGRLTISRDNAKNTVYLQMNSLKPEDTAVYYCDAEYRYYWYGTMNYWGQGTQVTVSS | low polyreactivity
5 | QVHLVESGGCLVQAGGSLRLSCSASGSIFGWYAMGWYRQAPGKEREFVAAISYSGGSTYYADSVKGRFTNSRDIAKITVYLQINSLKPEDTAVYYCNARPYWYFPYRVPEGYDYWGQGTQVTVSS | high polyreactivity
6 | QVQLVESGGGLVQAGGSLRLRCAASGRIFGYYPMGWYRQAPGKERELDADITESGTSTYYADSVKGRFTISRDNAKNTVYLQMNSLKRVDTAVYYCAAGYWWRYALYGYWGQGTQVTVSS | low polyreactivity
7 | QVQLVESGGGLVQAGGSLRLSCAASGFTFRFYVMVWYRLAPGKERELVAAITASGGTTYYADSVKGRFTISRDNAKNSVYLQMNSLKPEDTAVYYCNALYYYLYGYDYWGQGTQVTVSS | high polyreactivity
8 | QVQLVESGGGLVQAGGSIRLSCAASGFIFRGNAMGWYRQAPGKERELVARISGSGDSTYYADSVKGRFTISRDNAKNTVYFQMNSQKPEATEVYDCNADVFPGVEAYDSTIEYYSWGQGTQVTVSS | low polyreactivity
9 | QVQLVESGGGLVQAGGSLRLSCAASGRTFARYVMGWYRQAPGKERELVAAISGGGGSTYYADSVKGRFTISRDNAKNTVYLQMNSLKPEDTAVYYCAAVPEGPNTGDDANGLDYWGQGTQVTVSS | low polyreactivity
10 | QVQLVESGGGLVQAGGSLRLSCAASGSIFEIYDMGWYRQAPGKERELVASIRTSGGSTYYAESVKGRFTISRDNAKNTVYLLMNSLKPEDTAVYYCATGWSWYHPDYDYWGQGTQVTVSS | low polyreactivity
11 | QVQLVESGGGLVQAGGSLRLSCAASGRIFTSYVMGWYRQAPGKERELVAAITWGGSTKYADSVKGRFTISRVNAKNTVYLQMNSLKPEDTAVYYCAADGGEYYKGFFAVPYGYWGQGTQVTVSS | low polyreactivity
12 | QVQLVESGGGLVQAGGSLSLSCAATGFTFRPYAMAWYRQATGKERELVAAITSGDSTNYADSVKGRFTISRDNAKKSVYLQMISVKAEDTAVFYCAADSTGRPSVSYDYWGQGTQVTVSS | low polyreactivity
13 | QVQLQESGGGLVQACGSLRLSCAASGSISNGDYMGWYRQAPGKEREFVAGINTGSITYYADSVKGRFTISRDNAKNTAYLQMNSLKPEDTAVYYCAATFDAQFREPKGLYYWGQGTQVTVSS | low polyreactivity
14 | QVQLQESGGGLVQAGGSLRQSCAASGYIFQPFYMGWYRQAPGKERELVAGISVGGNTYYADSVKGRFTISRDNAKNSVFLQMNSLKPEDTAVYYCAVQFVLQDKYVYWGQGTQVTVSS | low polyreactivity
15 | QVQLVESGGGLVQAGGSLRLSCAASGHTFTINAMGWYRQAPGKERELVAAITFSGGRTYYADSVKGRFTISRDNAKNTVYLQMNSLKPEDTAVYYCAADNPGGSIYDYWGQGTQVTVSS | low polyreactivity
16 | QVQLVESGGGLVQAGGSLRLSCAASGSTFVYYGMGWYRQAPGKERELVAAITDIGDSTNYADSVKGRFTISRDNAKNTVYLQMNSLKPEDTAVYYCAASGRSVPYYGSPRNDYWGQGTQVTVSS | low polyreactivity
17 | QVQLVESGGGLVQAGGSLRLSCAASGRTFGQNAMGWYRQAPGKERELVASIRSGGITDYADSVKGRFTISRDNAKNTVYLQMNSLKPEDTAVYYCNAEGVWWSTRYDSWGQGTQVTVSS | low polyreactivity
18 | QVQLVESGGGLVQAGGSLRLSCAASGSNFFSNAMGWYRQAPGKERELVAAITSSGASTYYADSVKGRFTISRDNAKNTVYLQMNSLKPEDTAVYYCAVVGGGKRYGYWGQGTQVTVSS | high polyreactivity
19 | QVQLVESGGGLVQAGGSLRLSCAASGLIFGPNAMGWYRQAPGKERELVAAITKSGDSTYYADSVKGRFTISRDNAKNTVYFQMNSLKPEDTAVYYCAADTTTGLYDYWGQGTQVTVSS | low polyreactivity
20 | QVQLVESGGGLVQAGGSLRLSCAASGSIFYWYAMGWYRQAPGKEREFVAGITGRGGSTYYADSVKGRFTISRDNAKNTVYLQMNSLKPEDTAVYYADFVKYGKYYQRYDYWGQGTQVTVSS | high polyreactivity
21 | QVQLVESGGGLVQAGGSLRLSCAASGRTFYYYDMGWYRQAPGKERELVAAISASGGSTYYADSVKGRFTISRDNAKNTVYLPMNSLKPDDTAVYYCAATLYHYWYSDFDYWGQGTQVTVSS | high polyreactivity
22 | QVQLVESCGGLVQAGGSLRLSCAASGSIFRYNAMGWYRQAPWKEWELVAAIRSGSGTNYADSVKGRFTISRDNAKNTVFLQMNSLKPEDTAVYYCNAQPWYRTKYDYWGQGNQVTVSS | low polyreactivity

Row | Sequence | polyreactivity (PSR sort gate)
23 | QVQLVESGGGLVQAGGSLRLSCAASGRIFSSKAMGWYRQAPGKERELVAAISWIVGRTYYADSVKGRFTISRDNAKNTVYLQMNSLIPEATAVYYCAKGSYYVRNRGWGYDYWGQGTQVTVSS | high polyreactivity
24 | QGQHVESGGGLVQAGGSLRLICAASGRIIVHYVMGWYRQAPRKERELVAAISRSGGRTYYADSVKGRFTISRDNAKNTVYLQMNSLKPEDTAVYYCATDASTDKYDYWGQGTQVTVSS | high polyreactivity
25 | QVQLVESGGGLVQAGGSLRLSCAASGRIFAYYVMGWYRQAPGKERELVAAITWSGTSTYYADSVKGRFTISRDNAKNTVYLQMNSLKPEDTAVYYCNAVWSRSTRGYDYWGQGTQVSVSS | high polyreactivity
26 | QVQLVESGGGLVQAGGSLRLSCAASGSTFWFYAMGWYRQAPGKERELVAAISSSGTNTYYADSVKGRFTISRDNAKNTVYLQMNSLKPEDTAVCYCAAQYRGSYRTTYDYWGQCTQVTVSS | low polyreactivity
27 | QVQLVESGGGLVQAGGSLRLSCAASGSIISYYAMGWYRQAPGKEWELVAAISWSGGSTYYADSVKGRFTISRDNAKNTVYLQRNSLTPEDTAVYYCAKYAYPRSRYTPYGSYDYWGQGTQVTVSS | high polyreactivity
28 | QVQLVETGGGLVQAGGSLRLSCAATGFTFGYYTMGWYRQAPGKEGELVAAITWRGGSTYYADSVKGRFTISRDNAKNTVYLQMNSLKPEDTAVYYCNAVVLGYYPSGVYPDDEEHDYWGQGTQVTVSS | high polyreactivity
29 | QVQLVESGGGLVQAGGTLRLSCAASGIIFNYYAMGWYRHAPGKERELVAAITRGGRTNYADSVKGRFTISRDNAKNTVYLQMNSLKPEDTAVYYCNAPAFYKYKSFYAHSGYDYWGQGTQVTVSS | high polyreactivity
30 | QVQLVESGGGLVQAGGSLRLSCAASGRIFVTYAMGWYRQAPGKERELVAVISWSGGSTYYADSVKGRFTISRDNAKNTVYLQMNSLKPEDTAVYYCARGLRKVRFDYWGQGTQVTVSS | low polyreactivity
31 | QVQLVESGGGLVQAGGSLRLSCAASGGNFWIYTMGWYTQAPGKERELVASITRGGSTYADSVKGRFTISRDKAKNTVYLQMNSLKPEDTAVYYCNAEFRYPWFRWEYDHWGQGTQVTVSS | low polyreactivity
32 | QVQLVESGGGLVQAGGSLRLSCAASGSIFDVYTMGWYRQAPGKERELVAAINTGGGSTYYADSVKGRFTISRDNAKNTVYLQMNSLKPEDTAVYFCAASVYHYGPLYYWGQGTQVTVSS | low polyreactivity
33 | QVQLVESGGGLVQAGGSLRLSCAASGRTFHGYALGWYRQAPGKERELVARINWSDGRTYYADSVKGRFTISRDNAKNTVYLQMNSLKPEDTAVYYCAADKTVSYAPAWYYYWGQGTQVTVSS | low polyreactivity
34 | QVQLVESGGGLVQAGGSLRLSCAASGRIFQGFAMGGYRQAPGKERELVAAISSGGRTYYADSVKGRFTISRDNAKNTVYLQMNSLKPEDTAVYYCAARSPKANGLQRFDYWGQGSQVTVSS | high polyreactivity
35 | QVQHVESGGGLVQAGGSLRLSCAASGFIFWKNAMGWYSQAPGKERELVAAITVTGASTYYADSVKGRFTISRDNAKNTVYLQMNSLKPEDTAVYYCAAKTLSVGYVDPDYGRDYWGQGTQVTVSS | low polyreactivity
36 | QVQLVESGAGLVQAGGSLRLSCAASGFTFDQYAMGWYRPATGKERELVAGISWGGGTTYYADSVKGRFTISRDNAKNTVYLHMNSLKPEDTAVYYCAAVRPGYPYYGSDYWGPGTQVTVSS | low polyreactivity
37 | QVQLVESGGGLVQAGGSLRLSCAASGSTFSVYTMGWYRQAPGKERELVAAITSGGTYYADSVKGRFTISRDNAKNTVYLQMNSLKPEDTAVYYCAADVLSVGKHYDYWGQCTQVTVSS | low polyreactivity
38 | QVQLVESGGGLVQAGGSLRLSCAASGSIFGYEMGWYRQAPGRERELVAAISFSGVSTYYADSVKGRFTISRDNAKNTVYIQMNSLKQEDTAVYNCNAYSDGDEDYWVQGTQVTVSS | low polyreactivity
39 | QVQLVESGGGLVQAGGSLRLSCAPSGSTFYRYAMGWYRQAPGKERELVAAISSSGGRTYYADSVKGRFTISRDNAKNTDYLQMNSLKPEDTAVYYCAADYTKHYWGQGTQVTVSS | high polyreactivity
40 | QVQLVESGGGLVQEGGSLRLSCAASGRTFAYNVKGRYRQAPGKVRELVAGISFGAGSTYYADSVKGRFTISRDNAKNTVYLHMNSLKPEDTAVYYCATRRRGTRYPRGYDYWGQGTQVTVSS | high polyreactivity
41 | QDQLVESGGGLVQAGGSLRLSCAASGSTLNGNAMGWYRQAPGKERELVAAITTSGGSTYYADSVKGRFTISRDNAKNTVYLQMNSLKPEDTAVYYCNKLIGRRYGWANGYDYWGQGTQVTVSS | low polyreactivity
42 | QVQIVETGGGLVQAGGSLGLSCAASGSNFGGNTMPCYRQAPGIERALVAAISRSGGSTYYADSVKGRFTISRDIAQNSVYVQMNSLKPEDTAVYYCNRKQAGQAQGYDYWGLGTQVTVSS | high polyreactivity
43 | QVQLEESGGGLVQAGGSLRLSCAASGSIFSPNAMGWYRQAPGKERELVAAISSNGVSTYYADSVKGRFTISRDNAKNTVYLQMNSLKPEDTAVYYCAAVSIGPGEYDYWGQGTQVTVSS | low polyreactivity
